We go through two molecules from patent publication US20030220482A1 (published 2003).

The target of experiment [1] is T1, CXCR4 chemokine receptor (human, UniProt P61073 1-352).
T1 construct: whole, on cells
As to the kind of experiment: ^125I-SDF-1α competitive binding on CEM-T4 cells.
Description: CEM-T4 cells were harvested and washed twice with PBS. […] The incubation was terminated by separating the cells from the binding buffer by centrifugation and washing once with 500 μl of cold binding buffer. Bound ligands were quantitated by counting γ emissions.

Experiment [2] concerns the target T2, CCR5 chemokine receptor (UniProt P51681 1-352, limits assumed).
T2 construct: whole, on cells
As to the kind of experiment: competitive binding with radiolabeled MIP-1β on CCR5-transfected 293 cells.

Experiment [3] addresses T1, CXCR4 chemokine receptor. As to the kind of experiment: control in ^125I-SDF-1α competitive binding on CEM-T4 cells (FIG. 1).

T1 sequence (P61073 whole entry): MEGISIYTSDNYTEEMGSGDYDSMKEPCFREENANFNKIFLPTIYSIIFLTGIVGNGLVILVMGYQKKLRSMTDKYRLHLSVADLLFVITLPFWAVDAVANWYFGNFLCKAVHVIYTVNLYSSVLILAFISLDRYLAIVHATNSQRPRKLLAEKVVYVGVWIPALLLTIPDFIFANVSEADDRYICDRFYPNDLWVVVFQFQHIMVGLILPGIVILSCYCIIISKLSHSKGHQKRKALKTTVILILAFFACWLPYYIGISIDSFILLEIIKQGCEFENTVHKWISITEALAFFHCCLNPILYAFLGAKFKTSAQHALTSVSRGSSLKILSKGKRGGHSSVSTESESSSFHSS
T2 sequence (P51681 whole entry): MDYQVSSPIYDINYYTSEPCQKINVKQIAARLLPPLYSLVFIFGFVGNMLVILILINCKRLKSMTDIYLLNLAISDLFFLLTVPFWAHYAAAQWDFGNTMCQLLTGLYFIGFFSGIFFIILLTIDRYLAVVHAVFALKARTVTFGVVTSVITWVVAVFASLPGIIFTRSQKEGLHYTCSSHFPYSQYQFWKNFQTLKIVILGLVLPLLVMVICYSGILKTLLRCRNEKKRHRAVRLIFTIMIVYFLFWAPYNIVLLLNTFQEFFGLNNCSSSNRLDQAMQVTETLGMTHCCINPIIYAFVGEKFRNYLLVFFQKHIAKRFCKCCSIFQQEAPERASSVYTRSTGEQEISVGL

For the molecule LGASWHRPDK [V3 peptide (vMIP-II, 1-10)], the binding result in experiment [1] is listed as “binds”; in experiment [2] it was “no binding”.

B1: viral Macrophage Inflammatory Protein-II (vMIP-II) (ligand)
chain: LGASWHRPDKCCLGYQKRPLPQVLLSSWYPTSQLCSKPGVIFLTKRGRQVCADKSKDWVKKLMQQLPVTAR
notes: also called native vMIP-II
With B1, the binding result in experiment [3] was “binds”.
